Data set [1] addresses Msh2-msh6(3MBD) (Saccharomyces cerevisiae) (UniProt P25847+Q03834). Put plainly: BLI. The conditions noted are these: BLI: 25 mM Tris-HCl pH 7.5, 1 mM EDTA, 100 mM NaCl, 0.1 mg/mL BSA, 1 mM DTT, 0.05% Tween-20; DNA 7.5 nM (30 nM for Msh2-Msh6); temperature not stated; no ….
A further data set addresses Msh2-Msh6 (Saccharomyces cerevisiae, UniProt P25847;Q03834 1-964;1-1242). Kind of data set: BLI; BLI: 25 mM Tris-HCl pH 7.5, 1 mM EDTA, 100 mM NaCl, 0.1 mg/mL BSA, 1 mM DTT, 0.05% Tween-20; DNA 7.5 nM (30 nM for Msh2-Msh6); temperature not stated; no nucleotide or Mg2+ listed. Particulars: protein: recombinant, copies: 1;1, label: 5' biotin on bottom strand. Background: In BLI a coated tip is dipped into the sample, and binding shifts an interference pattern.

For a further data set, the target named is Msh2-Msh3 (Saccharomyces cerevisiae, UniProt P25847;P25336 1-964;1-1018). Described as above. The conditions noted are these: protein: recombinant, copies: 1;1, label: 5' biotin on bottom strand.
[2] abbreviates: as printed, bottom strand has 1 extra nt (T opposite missing A after CTAGG of top; possible misprint), described as homoduplex.
Setting [3] is: blunt, 8-nt extrahelical loop in top strand.
[4] abbreviates: blunt, extrahelical (CTG)10 quasi-hairpin in top strand.
The mark [5] stands for this setting: blunt, extrahelical (CAG)10 quasi-hairpin in top strand.

Chain of Msh2-msh6(3MBD) (Saccharomyces cerevisiae) (P25847 whole entry, chain 1 of 2): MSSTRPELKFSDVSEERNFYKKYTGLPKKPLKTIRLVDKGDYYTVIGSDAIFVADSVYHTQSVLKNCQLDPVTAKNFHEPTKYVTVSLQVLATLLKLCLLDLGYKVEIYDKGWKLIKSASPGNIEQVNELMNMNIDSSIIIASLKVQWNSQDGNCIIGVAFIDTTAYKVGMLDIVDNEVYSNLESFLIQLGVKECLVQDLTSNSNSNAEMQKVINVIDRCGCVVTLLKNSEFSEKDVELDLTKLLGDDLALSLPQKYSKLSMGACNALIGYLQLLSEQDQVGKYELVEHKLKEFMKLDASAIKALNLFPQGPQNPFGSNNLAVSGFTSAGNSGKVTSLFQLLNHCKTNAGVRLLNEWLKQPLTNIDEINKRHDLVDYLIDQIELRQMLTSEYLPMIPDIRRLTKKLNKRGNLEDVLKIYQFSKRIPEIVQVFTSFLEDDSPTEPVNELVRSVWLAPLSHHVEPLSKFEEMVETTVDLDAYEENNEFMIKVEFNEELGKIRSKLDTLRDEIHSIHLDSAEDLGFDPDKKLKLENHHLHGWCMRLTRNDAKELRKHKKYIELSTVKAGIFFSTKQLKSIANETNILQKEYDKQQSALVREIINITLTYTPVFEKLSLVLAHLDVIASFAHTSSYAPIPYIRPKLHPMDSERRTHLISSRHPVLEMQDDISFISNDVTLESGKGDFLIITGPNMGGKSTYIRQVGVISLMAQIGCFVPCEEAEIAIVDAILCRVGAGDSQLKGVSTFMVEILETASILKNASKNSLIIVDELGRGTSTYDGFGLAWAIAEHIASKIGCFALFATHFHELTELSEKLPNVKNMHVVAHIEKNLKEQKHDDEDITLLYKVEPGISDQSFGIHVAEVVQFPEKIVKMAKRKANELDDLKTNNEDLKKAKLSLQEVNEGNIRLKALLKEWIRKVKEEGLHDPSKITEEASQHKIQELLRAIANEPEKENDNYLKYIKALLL
Chain of Msh2-msh6(3MBD) (Saccharomyces cerevisiae) (Q03834 whole entry, chain 2 of 2): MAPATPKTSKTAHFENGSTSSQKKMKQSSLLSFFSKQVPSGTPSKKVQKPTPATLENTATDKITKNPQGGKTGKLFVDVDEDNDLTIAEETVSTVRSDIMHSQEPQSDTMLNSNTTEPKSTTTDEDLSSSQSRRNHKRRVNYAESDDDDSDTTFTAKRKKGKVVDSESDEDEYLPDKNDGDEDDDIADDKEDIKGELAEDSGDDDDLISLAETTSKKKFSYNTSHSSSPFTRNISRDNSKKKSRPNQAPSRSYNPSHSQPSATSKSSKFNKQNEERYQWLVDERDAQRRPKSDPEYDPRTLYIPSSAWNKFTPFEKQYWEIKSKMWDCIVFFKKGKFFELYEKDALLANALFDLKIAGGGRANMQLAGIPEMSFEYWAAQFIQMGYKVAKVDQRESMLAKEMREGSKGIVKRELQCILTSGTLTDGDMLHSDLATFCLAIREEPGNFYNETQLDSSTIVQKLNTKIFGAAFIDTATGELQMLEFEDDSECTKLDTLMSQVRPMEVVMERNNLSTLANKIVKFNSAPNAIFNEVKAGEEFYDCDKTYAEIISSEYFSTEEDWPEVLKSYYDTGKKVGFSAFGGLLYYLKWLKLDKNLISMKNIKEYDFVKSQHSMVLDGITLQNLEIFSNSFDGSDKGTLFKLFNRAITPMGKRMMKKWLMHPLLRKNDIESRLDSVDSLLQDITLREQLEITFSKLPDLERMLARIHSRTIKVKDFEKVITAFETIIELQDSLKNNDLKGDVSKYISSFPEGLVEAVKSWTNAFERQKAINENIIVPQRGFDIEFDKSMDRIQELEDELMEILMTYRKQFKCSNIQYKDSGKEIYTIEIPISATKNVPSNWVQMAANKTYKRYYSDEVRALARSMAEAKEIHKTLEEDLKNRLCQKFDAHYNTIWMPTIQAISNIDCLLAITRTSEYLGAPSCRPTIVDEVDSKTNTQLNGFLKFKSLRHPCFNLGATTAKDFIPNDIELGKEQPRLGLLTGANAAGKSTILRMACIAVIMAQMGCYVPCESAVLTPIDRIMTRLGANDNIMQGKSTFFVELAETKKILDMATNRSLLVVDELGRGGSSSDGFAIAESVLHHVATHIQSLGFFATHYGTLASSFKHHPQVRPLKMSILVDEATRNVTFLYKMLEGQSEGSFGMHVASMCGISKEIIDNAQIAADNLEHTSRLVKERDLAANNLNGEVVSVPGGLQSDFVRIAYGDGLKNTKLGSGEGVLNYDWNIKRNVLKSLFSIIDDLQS
Chain of Msh2-Msh3 (P25847 whole entry, chain 1 of 2): as the sequence (P25847 whole entry, chain 1 of 2) above
Chain of Msh2-Msh3 (P25336 whole entry, chain 2 of 2): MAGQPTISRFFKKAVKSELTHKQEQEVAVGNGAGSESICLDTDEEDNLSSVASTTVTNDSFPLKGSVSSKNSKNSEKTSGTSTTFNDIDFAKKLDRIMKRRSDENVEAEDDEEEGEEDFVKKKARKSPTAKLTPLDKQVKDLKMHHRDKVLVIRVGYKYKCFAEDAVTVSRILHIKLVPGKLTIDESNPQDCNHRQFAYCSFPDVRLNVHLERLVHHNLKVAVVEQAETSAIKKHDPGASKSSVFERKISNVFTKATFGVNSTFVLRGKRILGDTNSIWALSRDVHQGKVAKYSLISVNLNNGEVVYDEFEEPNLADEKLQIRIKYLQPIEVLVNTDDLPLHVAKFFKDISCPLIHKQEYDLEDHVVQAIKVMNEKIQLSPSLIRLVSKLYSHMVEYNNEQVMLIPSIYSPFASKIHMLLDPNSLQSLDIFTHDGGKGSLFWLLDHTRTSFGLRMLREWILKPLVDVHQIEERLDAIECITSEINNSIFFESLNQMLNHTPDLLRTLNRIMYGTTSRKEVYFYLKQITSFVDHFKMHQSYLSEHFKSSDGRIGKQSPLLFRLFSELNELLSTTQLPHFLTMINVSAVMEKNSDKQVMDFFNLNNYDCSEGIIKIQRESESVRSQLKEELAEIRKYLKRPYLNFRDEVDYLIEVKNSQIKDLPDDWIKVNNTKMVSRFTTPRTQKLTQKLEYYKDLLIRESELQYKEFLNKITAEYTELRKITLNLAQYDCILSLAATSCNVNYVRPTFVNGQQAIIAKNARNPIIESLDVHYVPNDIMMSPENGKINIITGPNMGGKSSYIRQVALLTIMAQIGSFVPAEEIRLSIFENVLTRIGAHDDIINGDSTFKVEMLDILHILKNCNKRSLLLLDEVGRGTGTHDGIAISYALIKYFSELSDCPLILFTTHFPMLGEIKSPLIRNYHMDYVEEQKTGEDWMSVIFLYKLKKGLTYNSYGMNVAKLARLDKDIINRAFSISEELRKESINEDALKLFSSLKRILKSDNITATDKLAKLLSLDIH
Chain of Msh2-Msh6 (P25847 whole entry, chain 1 of 2): as the sequence (P25847 whole entry, chain 1 of 2) above
Chain of Msh2-Msh6 (Q03834 whole entry, chain 2 of 2): as the sequence (Q03834 whole entry, chain 2 of 2) above

Usually Kd stands for a measure of binding affinity in units of concentration. As for “CACGCTACCGAATTCTGACTTGCTAGGCATCTTTGCCCACGTTGACCC / GGGTCAACGTGGGCAAAGATGTCCTAGCAAGTCAGAATTCGGTAGCGTG [Homoduplex (LS1/LS2-Bio)]”, in data set [1], the Kd was 7.16 nM. Consider “CACGCTACCGAATTCTGACTTGCTAGCAGCAGCAGCAGCAGCAGCAGCAGCAGCAGGACATCTTTGCCCACGTTGACCC / GGGTCAACGTGGGCAAAGATGTCCTAGCAAGTCAGAATTCGGTAGCGTG [(CAG)10 (LS-CAG/LS2-Bio)]”, for which, in data set [1], the Kd turned out to be 2.37 nM. For “CACGCTACCGAATTCTGACTTGCTAGCTGCTGCTGCTGCTGCTGCTGCTGCTGCTGGACATCTTTGCCCACGTTGACCC / GGGTCAACGTGGGCAAAGATGTCCTAGCAAGTCAGAATTCGGTAGCGTG [(CTG)10 (LS-CTG/LS2-Bio)]”, the Kd in data set [1] was 1.05 nM. The same measure, in the same setting: the same measure for “CACGCTACCGAATTCTGACTTGCTAGGTGTGTGTGACATCTTTGCCCACGTTGACCC / GGGTCAACGTGGGCAAAGATGTCCTAGCAAGTCAGAATTCGGTAGCGTG [+8 loop, (GT)4 (LS8/LS2-Bio)]”: 0.872 nM.

B1: Homoduplex (LS1/LS2-Bio) (dsDNA)
DNA 1: CACGCTACCGAATTCTGACTTGCTAGGCATCTTTGCCCACGTTGACCC
DNA 2: GGGTCAACGTGGGCAAAGATGTCCTAGCAAGTCAGAATTCGGTAGCGTG
Take B1: the Kd with Msh2-Msh6 (setting [2]) stood at 21 nM; with Msh2-Msh3 (setting [2]), 9.22 nM.

B2: +8 loop, (GT)4 (LS8/LS2-Bio) (dsDNA)
DNA 1: CACGCTACCGAATTCTGACTTGCTAGGTGTGTGTGACATCTTTGCCCACGTTGACCC
DNA 2: B1 DNA 2
As for B2, the Kd with Msh2-Msh6 (setting [3]) was determined as 8.67 nM; in the data set with Msh2-Msh3 (setting [3]), 2.62 nM.

B3: (CTG)10 (LS-CTG/LS2-Bio) (dsDNA)
DNA 1: CACGCTACCGAATTCTGACTTGCTAGCTGCTGCTGCTGCTGCTGCTGCTGCTGCTGGACATCTTTGCCCACGTTGACCC
DNA 2: B1 DNA 2
With B3, the Kd worked out at 3.07 nM in the data set with Msh2-Msh6 (setting [4]) and 2.25 nM in the data set with Msh2-Msh3 (setting [4]).

B4: (CAG)10 (LS-CAG/LS2-Bio) (dsDNA)
DNA 1: CACGCTACCGAATTCTGACTTGCTAGCAGCAGCAGCAGCAGCAGCAGCAGCAGCAGGACATCTTTGCCCACGTTGACCC
DNA 2: B1 DNA 2
B4: the Kd turned out to be 2.73 nM in the data set with Msh2-Msh6 (setting [5]) and 1.38 nM with Msh2-Msh3 (setting [5]).

The record behind these values is article PMC11912836, “Msh2-Msh3 DNA-binding is not sufficient to promote trinucleotide repeat expansions in Saccharomyces cerevisiae”.
